Test: soluble on expression in E. coli; label from the status in PepcDB or PDB records

| Sequence | soluble on expression in E. coli |
| --- | --- |
| MSLAYKPDDAAPFRSVTRQVLFSDLRLGCEWRYFEVAEGGYSTLERHQHVHATMIHRGRGQCLVGDVISDVAVGDLVFIPPMTWHQFRANAGDVLGFLCLVNADRDREGHHHHHH | not soluble |
| MEAGLDQSEIDERCECLKEVATSPAGRVLATDKQLDNLEQFISLVPGYIEKVRSHRVAVKAEEKRKAEEKRRQEEKEEEARKAREKQIEEERKAKEEQRANEERAKEERDRRALEVIVPPRQNSANSNINASVAFITNRLEMGSFSENNETVDRTIDTTATTVLSASSNAAQVDFVSFIKNSGEYLMVRKKKFPVDELVNNEKLGYPLGVTYDEKSKYWIICDRNLNKVLLMNVAESDVRVFEGPHLRNPTAVAVFEKGKSVVILCAPGNNQHVIYIYDFVDEIMHQFASHSDPLYNMKSQLRGLAISLGGNVLSLECSHAAAPKRLRIFKRDVGGKGFDIMGAKTPSFIASHNSKVAISDLGNNTVLIGNLIDTDWNKMSFSVLRIIETTQDLTLDQLANNNGFKFVSGMQFDTYGHLLIGDAKGHTIKLYDTDYKFLHRISSDFPLPYMSSFHISSSGEGIILDVHAQQKLHWVKMESIENITPWKAPPYQPKQSRENYQNRRF | not soluble |
| EMEEREIINNVFEFGDMQAKNAMVQRIDMVAIDMEDSYDEIIQVFKTEKLSRMPVYEETIDDIVGILNIKDIIFLSDEEIESFDIKNYMREPFFTYEFKKITQLLEEMKLEKSQMAIVVDEYGGTSGLLTIEDLVEVIVGDIE | soluble |
| MSMLSMDGIVAGGGSSSGGGERSFVLEQKMFNTGPQNKALPTVQSSGSSSNHAPIVGESPLGTVSSTMATGDTGRVGNVTYMSSGMLGATQFMPQNSSHPSTSVMMQQVPPQNGGATRSSPTEMQQCMQAMSEDSIEMRDYNSGVHHMHPHQMQMQQQQQHHQQQYNMSYHNHQQQMQQMHYHQQQQQYQQQQAQHHQMYAPQIQQQQQQPQQQSQQQSAQQPQQSSAALQHVNESSNLSSAGSISDREPEQHGGTPQRPTAPQSSTATDKKTRKRRKAGPTEDQATPKQERKITEFMKVGGEVASGNSVARCLLTEYHQNQGSPKRQPAVQQNGSNSYDSQQQQPQMNQHEMQNSYWGVATPSLGVNNRGTPTPTQQQHYSSDSNSNSNQSPPGQGNQSGRMVRTIDEETQTDSSLSQANPQNADEVAKMNRIIEDHRRQIEELNSKNSLERRKNEASKETIKRLLIDKNQIERKALRDKTAADSPRIGCFKTTRTGDSFRDQWVDGWAFAEMDKKTEQINAERNEIASASALLKKRKPLGIGKEPKRPQAVNSQNDSNGMQPSTSSNTNGDDAIFRRPEEPKEIQYQEYIELDEIYKLRREHLRKEETDLSMEKERLEKEKQHHVRELKRASNESASQFNDHRLLHKRYLMLNLLGKGGFSEVWKAFDIEENRYVACKIHHVNKDWKEEKKANYVKHAMREKDIHKSLDHCRIVKQYDLLTIDNHSFCTVLEYVPGNDLDFYLKQNRSISEKEARSIIMQVVSALVYLNEKSTPIIHYDLKPANILLESGNTSGAIKITDFGLSKIMEGESDDHDLGIELTSQFAGTYWYLPPETFIVPPPKITCKVDVWSIGVIFYQCIYGKKPFGNDLTQQKILEYNTIINAREVSFPSKPQVSSAAQDFIRRCLQYRKEDRADVFELAKHELFRPRGAIRASVAGSVSSPSIPRSPSVNREDDNM | not soluble |
| MRDTMEILRTENIVKYFGEFKALDGVSISVNKGDVTLIIGPNGSGKSTLINVITGFLKADEGRVYFENKDITNKEPAELYHYGIVRTFQTPQPLKEMTVLENLLIGEINPGESPLNSLFYKKWIPKEEEMVEKAFKILEFLKLSHLYDRKAGELSGGQMKLVEIGRALMTNPKMIVMDQPIAGVAPGLAHDIFNHVLELKAKGITFLIIEHRLDIVLNYIDHLYVMFNGQIIAEGRGEEEIKNVLSDPKVVEIYIGE | soluble |
| MGHHHHHHSHAESHLQSSLITASQFFEIWLHFDADGSGYLEGKELQNLIQELQQARKKAGLELSPEMKTFVDQYGQRDDGKIGIVELAHVLPTEENFLLLFRCQQLKSCEEFMKTWRKYDTDHSGFIETEELKNFLKDLLEKANKTVDDTKLAEYTDLMLKLFDSNNDGKLELTEMARLLPVQENFLLKFQGIKMCGKEFNKAFELYDQDGNGYIDENELDALLKDLCEKNKQDLDINNITTYKKNIMALSDGGKLYRTDLALILCAGDN | soluble |
| MSHVELQPGFDFQQAGKEVLAIERECLAELDQYINQNFTLACEKMFWCKGKVVVMGMGKSGHIGRKMAATFASTGTPSFFVHPGEAAHGDLGMVTPQDVVIAISNSGESSEITALIPVLKRLHIPLICITGRPESSMARAADVHLCVKVAKEACPLGLAPTSSTTATLVMGDALAVALLKARGFTAEDFALSHPGGALGRKLLLRVNDIMHTGDEIPHVKKTASLRDALLEVTRKNLGMTVICDDNMMIEGIFTDGDLRRVFDMGVDVRQLSIADVMTPGGIRVRPGILAVEALNLMQSRHITSVMVADGDHLLGVLHMHDLLRAGVV | soluble |
| MSQQKICFIGAGNMTRSIISGLIRSGYPASQVQATNPSQGKLDALATDFGVRVSQDNVSAAQDADVIILSVKPQLMEQVCQALQGIDMSNKLLITIAAGIKASRYSEYLAQPITLIRTMPNTPMQIGVGMTGLYAPQSLSDAQKAIAERLMSSGGEIVWVNEESDINQVIALAGSSPAYFFLLMESMIDAGKQMGMDEAKARSLVQQAALGAAMMAKQNPELTLGNLRENVTSKGGTTAQAIATFEAADLRGVVKKAMENCINRAEEMAKTF | soluble |
| MSLQFFDRKETMKFPSDFIEKYKDLLGAEAEEFFTSFDQEAVSAYRINPLKKQQKDYPDPIPGTPWGYYGKISGKSSDHATGLVYSQEPAAQMVAQVAAPSKGSRVLDLAAAPGGKSTHLLSYVDNTGLLVSNEIDFTRSKVLVENLERFGAKNVVVNHTSADKLAEVFKNYFDMIVFDGPCSGEGMFRKDPDAIQYWHKDYPSELAQLQKDILADGLKMLAPGGQLVYSTCTWSPEENEGVVAWILENYPDLELVAIPKLSGMSDGIDFPETARMYPHHFKGEGQFVAKFQDKRMPEQSCIKEGKTNLNKEQKQLWDDFVKKHLKLPLDGLLQVFGDNLYLLPRGLPDLSKVKIARNGLHLGIFKKKRFEPSFALGIALTSDEVVSSIELTQEQFAQYASGNVVTLDQTLENGWYQLLVDGNGFGFAKVIGNTLKNYYPKGLRFHEGHHHHHH | soluble |
| MSNEHTRPPLPPFTRESAIEKVRLAEDGWNTREPEKIALAYTVDTQWRNRAEFANNREEARDFLTRKWKKELDYRLIKELWAFTDNRIAVRYAYEWHDDSGNWFRSYGNENWEFEADGLMHRRFACINDMPIKESERKFHWPLGRRPDDHPGLTELGLLEHHHHHH | not soluble |
| MGSDKIHHHHHHMTMTDERPVLVATEADDITADMVITELNRRDVPVVRFNLADIGEGLTVSARFGTCPAPVVGQVRTSSRTADLTRVRSVYWRRPEWPSFPHLSPDDSRFAAAQVRYGLGGTLYALDHPLWVNHPLRIAAADYKPAQLALAQQLGFTIPTTLVTNDPAEAREFIRTQGDVIFKTLRWTPYTRDGVPVTGWADPVTADEIDDNVRITPHLFQARVDKVTDLRVLIVGQHTFAVRIDSELLDWRRDYSVLTYTVEHLPDSVDKALHAYLDRLELVSGSFDLTVDRAGVYWWLELNPNGQWGWLEKETGLPMSAAFADLLVQGDRQ | not soluble |
| MNNSREDQWLQHYEQQNIQEITPCFNAINIASSSGSSLGDGGAAAHEAAGRRSRASRRAIPTTLLNANPSNFRALVQKFTGRSAGGESNRRKGPVTLDFGSPTTISKEAIFPVSSDRSNNNLDHVVNQHVSNEQRHVTWSGTESMMSYQLGEETNSAVYSSGYDDQDLPREYSGNSSYDESLDHMDYYQDFHRETATLEEFMMRDLDL | soluble |
| MRKIVLASVVTSLVGCSMGHRDPVEAKQALNQAINETNSRQIDQLPPSVEADLMPDMDTLTASEPKTLQRFRIQAEDVEAKAFFASLVQGTEYSAAIHPAVTGRITLNLTDVTLDEALGVVRDLYGFEVVKEGKVIQVYPAGLRTVTIPVDYLQFKRTGRSLTSITTGTITNTDTNNSNSSSSSSSSISSNSSSDGSSSNSNSNRSDARGGTEIETTNESDFWPLLEKAVAQLLGGSGGQTVIVNPQAGVLTLRAYPDEIRQVNEFLGISQQRMHRQVILEAKILEVTLSDGYQQGINWSKAFSSNGANYKIGSGSITQDSNGNPITSVLPGLDAIGNLLGGQSNVVISSGSFDAVISFMATQGDLNVLSSPRVTASNNQKAVIKVGTDEYYVTDLSSVVGTGDNAQASPDITLTPFFSGISLDVTPQIDDQGNVLLHVHPAVIEVEQQTKKILYRSEEIELPLARSSIRESDSVIRAKDGDVVVIGGLMKSNTVDQVSKVPFLGDVPALGHLFRNTTKLTQKTELVILLKPTVVGVNTWQKELERSRSLLQEWFPDSQ | not soluble |

Source: the DeepSol protein solubility set
